Drawing on paper PMC6176576, this text covers stoichiometry N for two substances.

The target in this test is mtPaf1 (subunit of the four-subunit mtPaf1 complex) (Myceliophthora thermophila). The experiment in a line: co-purification, SDS/PAGE.

Consider “mtCdc73 (subunit of the four-subunit mtPaf1 complex) (natural protein)”, for which the stoichiometry N is 1. As to “mtLeo1 (subunit of the four-subunit mtPaf1 complex) (natural protein)”, the stoichiometry N was determined as 1.
